From article PMC6079037, “Hydra Mesoglea Proteome Identifies Thrombospondin as a Conserved Component Active in Head Organizer Restriction” (Scientific Reports, 2018)
Ends that are not written are not given here.

B1: human TSP1.V5 (thrombospondin-1 with V5 tag) (natural protein)
chain: not shown
notes: human thrombospondin-1 (TSP1); calculated monomer molecular weight of TSP1.V5 132.3 kDa
B2: HsTSP1cc, synthetic peptide of the trimerizing coiled-coil domain of human TSP1 (residues 275-314 of TSP1) (peptide)
peptide: Ac-GDELSSMVLELRGLRTIVTTLQDSIRKVTEENKELANELRRGW
notes: added residue before the TSP1 stretch; human thrombospondin-1 (TSP1), coiled-coil domain, residues 275-314; added residues after the TSP1 stretch (the Trp is used to measure concentration at 280 nm); 43-mer; Made on Rink amide resin, so the C-terminus is probably an amide (surmised); source: synthetic peptide (Fmoc solid phase on Rink amide resin), purified by RP-HPLC

Key:
[1] = biological target: the molecule itself; assay: non-reducing SDS-PAGE and immunoblot; V5-tagged proteins from conditioned media of transfected COS7 cells, collected on Talon resin, boiled in SDS sample buffer without DTT; 7% SDS-polyacrylamide gels; V5 antibody blot
[2] = biological target: the molecule itself; assay: AUC; sedimentation equilibrium; HsTSP1cc 50 uM in PBS, 20 °C, 20,000-50,000 rpm; fitted to a single, ideal species model

Protein	stoichiometry N [1]	stoichiometry N [2]
B1	3	
B2		2.96 x monomer mass
